Measured values from article PMC6138665.

Columns and labels:
[1] = molecular target: LC3B (UniProt Q9GZQ8); experiment: NMR HSQC titration of 15N-LC3B; conditions: reference: unphosphorylated peptide P0; sites S1014
[2] = molecular target: LC3A (UniProt Q9H492); experiment: ITC, peptide titrated into LC3A; conditions: reference: unphosphorylated peptide P0; sites S1014
[3] = molecular target: LC3C (UniProt Q9BXW4); experiment: ITC, peptide titrated into LC3C; conditions: reference: unphosphorylated peptide P0; sites S1014
[4] = molecular target: GABARAP-L1 (UniProt Q9H0R8); experiment: ITC, peptide titrated into GABARAP-L1; conditions: reference: unphosphorylated peptide P0; sites S1014
[5] = molecular target: GABARAP-L2 (UniProt P60520); experiment: ITC, peptide titrated into GABARAP-L2; conditions: reference: unphosphorylated peptide P0; sites S1014
[6] = molecular target: LC3B (UniProt Q9GZQ8); experiment: co-immunoprecipitation of Myc-AMBRA1, LC3 blot; conditions: reference: Myc-AMBRA1 wild type; sites S1014

Chain of GABARAP-L2 (P60520 whole entry, looked up): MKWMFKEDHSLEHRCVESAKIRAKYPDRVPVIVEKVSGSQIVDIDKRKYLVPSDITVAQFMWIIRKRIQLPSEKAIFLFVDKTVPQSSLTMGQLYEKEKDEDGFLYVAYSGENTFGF
Chain of GABARAP-L1 (Q9H0R8 whole entry, looked up): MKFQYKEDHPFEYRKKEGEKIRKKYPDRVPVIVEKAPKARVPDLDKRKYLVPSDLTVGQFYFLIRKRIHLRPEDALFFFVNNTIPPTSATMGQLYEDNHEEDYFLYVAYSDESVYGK
Chain of LC3C (Q9BXW4 whole entry, looked up): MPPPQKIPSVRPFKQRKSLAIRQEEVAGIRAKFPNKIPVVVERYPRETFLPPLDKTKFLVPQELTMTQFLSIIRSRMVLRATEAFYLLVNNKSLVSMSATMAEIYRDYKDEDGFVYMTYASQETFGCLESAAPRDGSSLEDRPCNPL

Substance | binding against the reference [1] | binding against the reference [2] | binding against the reference [3] | binding against the reference [4] | binding against the reference [5] | binding against the reference [6]
AMBRA1 AMBRA1-LIR (from UniProt Q9C0C7-3) pS1014 peptide P1 | stronger | stronger | stronger | stronger | stronger | 
AMBRA1 (from UniProt Q9C0C7-3) S1014A |  |  |  |  |  | weaker
